Patent US20260242735A1 (UNIVERSIT T BASEL, published 2026)

B1: Refmab #4 (antibody, human IgG1, V domains shown)
VH: QVQLVQSGAEVKKPGESVKVSCKASGYTFTNYGMNWVKQAPGQGLEWMGWINTYTGEPTYADKFQGRVTMTTDTSTSTAYMEIRNLGGDDTAVYYCARWSWSDGYYVYFDYWGQGTSVTVSS
VL: DIVMTQSPDSLTVSLGERTTINCKSSQSVLDSSTNKNSLAWYQQKPGQPPKLLLSWASTRESGIPDRFSGSGSGTDFTLTIDSPQPEDSATYYCQQSAHFPITFGQGTRLEIK
notes: Full-length MAb format, human IgG1 Fc silent (PG-LALA)
B2: Refmab #1 (antibody, human IgG1, V domains shown)
VH: EVQLVQSGAEVKKPGSSVKVSCKASGYTITDSNIHWVRQAPGQSLEWIGYIYPYNGGTDYNQKFKNRATLTVDNPTNTAYMELSSLRSEDTAFYYCVNGNPWLAYWGQGTLVTVSS
VL: DIQLTQSPSTLSASVGDRVTITCRASESLDNYGIRFLTWFQQKPGKAPKLLMYAASNQGSGVPSRFSGSGSGTEFTLTISSLQPDDFATYYCQQTKEVPWSFGQGTKVEVK
notes: Full-length MAb format, human IgG1; also called hP67.6
B3: Refmab #2 (antibody, human IgG1, V domains shown)
VH: QVQLVQSGAEVKKPGSSVKVSCKASGGTFSDYAISWVRQAPGQGLEWMGRIIPILGVADYAQKFQGRVTITADKSTRTAYMELSSLRSEDTAVYYCARNWADAFDIWGQGTMVTVSS
VL: DIQLTQSPSSLSASVGDRVTITCRASQGISSVLAWYQQKPGKAPKLLIYDASSLESGVPSRFSGSGSGTDFTLTISSLQPEDFATYYCQQFDSSITFGQGTKLEIK
notes: tested in IgG format
B4: Refmab #4 (antibody, human IgG1, V domains shown)
VH: B1 VH
VL: B1 VL
notes: tested in IgG format
B5: Refmab #1 (antibody, human IgG1, V domains shown)
VH: B2 VH
VL: B2 VL
notes: tested in IgG format; also called hP67.6
B6: Refmab #3 (antibody, human IgG1, V domains shown)
VH: QVQLVQSGAEVKKPGSSVKVSCKASGYTFTDYNMHWVRQAPGQGLEWIGYIYPYNGGTGYNQKFKSKATITADESTNTAYMELSSLRSEDTAVYYCARGRPAMDYWGQGTLVTVSS
VL: DIQMTQSPSSLSASVGDRVTITCRASESVDNYGISFMNWFQQKPGKAPKLLIYAASNQGSGVPSRFSGSGSGTDFTLTISSLQPDDFATYYCQQSKEVPWTFGQGTKVEIK
notes: tested in IgG format

biological target: T1, human wild-type CD33 (human, UniProt P20138 18-364); assay: flow cytometry, IgG at 0.25 ug/ml on HEK293-T cells expressing CD33 against vector alone
T1 construct: also called SIGLEC3; P67
T1 sequence (P20138 18-364 limits assumed): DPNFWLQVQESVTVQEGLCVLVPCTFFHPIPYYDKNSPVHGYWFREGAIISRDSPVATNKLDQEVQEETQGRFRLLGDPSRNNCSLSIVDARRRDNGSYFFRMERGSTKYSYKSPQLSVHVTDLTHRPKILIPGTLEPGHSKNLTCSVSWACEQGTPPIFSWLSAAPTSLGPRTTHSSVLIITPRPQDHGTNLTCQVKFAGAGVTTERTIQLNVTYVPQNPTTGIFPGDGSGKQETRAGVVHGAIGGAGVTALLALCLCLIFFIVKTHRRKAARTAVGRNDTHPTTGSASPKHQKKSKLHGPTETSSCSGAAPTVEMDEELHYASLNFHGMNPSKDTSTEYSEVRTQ
Experimental: Binding of the antibodies to the transfected cells and the optimal assay conditions were evaluated in 384-well format. Detection of cellular expression was measured via high-throughput flow cytometry. Serial dilutions of each antibody were tested for immunoreactivity against cells expressing CD33 or vector alone. The optimal screening concentration for each antibody was determined based on the raw signal values and signal-to-background calculations. Each point represents the mean of four replicates.

Signal:Background	Binder
38 signal:background ratio	B1
44 signal:background ratio	B2

biological target: human CD33 L134I (human, UniProt P20138 18-364); assay: flow cytometry, HEK293-T, IgG;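 further: CD33 point mutants transiently expressed, antibody binding measured by fluorescence in duplicate, background subtracted and scaled to binding on wild-type CD33 as 100%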
Sequence (P20138 18-364 L134I limits assumed): as the sequence (P20138 18-364 limits assumed) above, with L117I counted along it
Experimental: (§1) An alanine scan on human CD33 was performed to the determine the residues on CD33 that are involved in binding to the antibodies investigated. […] Briefly, a mutation library of CD33 was created by high-throughput, site-directed mutagenesis. Each residue was individually mutated to alanine, with alanine codons mutated to serine. The mutant library was arrayed in 384-well microplates and transiently transfected into HEK293-T. Following transfection, cells were incubated with the indicated antibodies (IgG or Fab) at concentrations pre-determined using an independent immunofluorescence titration curve on wild type CD33. […] Binding of each antibody to each mutant clone was determined in duplicates. For each point, background fluorescence was subtracted from the raw data, which were then normalized to antibody reactivity with wild type CD33.
(§2) Antibodies were screened for binding to the human CD33 variants in IgG format. […] For each mutation, background fluorescence was subtracted from the raw data, which were then normalized to antibody reactivity with wild-type CD33.

Mean % WT Binding [% WT binding]	Binder
105	B3
94.4	B4
106	B5
108	B6

biological target: human CD33 P132H (human, UniProt P20138 18-364); assay: flow cytometry, HEK293-T, IgG;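 further: CD33 point mutants transiently expressed, antibody binding measured by fluorescence in duplicate, background subtracted and scaled to binding on wild-type CD33 as 100%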
Sequence (P20138 18-364 P132H limits assumed): as the sequence (P20138 18-364 limits assumed) above, with P115H counted along it
Experimental: as §1, §2

Mean % WT Binding [% WT binding]	Binder
101	B3
92.7	B4
84.9	B5
87.8	B6

biological target: human CD33 S131F (human, UniProt P20138 18-364); assay: flow cytometry, HEK293-T, IgG;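 further: CD33 point mutants transiently expressed, antibody binding measured by fluorescence in duplicate, background subtracted and scaled to binding on wild-type CD33 as 100%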
Sequence (P20138 18-364 S131F limits assumed): as the sequence (P20138 18-364 limits assumed) above, with S114F counted along it
Experimental: as §1, §2

Mean % WT Binding [% WT binding]	Binder
111	B3
91.8	B4
95.6	B5
103	B6

biological target: human CD33 S131I (human, UniProt P20138 18-364); assay: flow cytometry, HEK293-T, IgG;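 further: CD33 point mutants transiently expressed, antibody binding measured by fluorescence in duplicate, background subtracted and scaled to binding on wild-type CD33 as 100%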
Sequence (P20138 18-364 S131I limits assumed): as the sequence (P20138 18-364 limits assumed) above, with S114I counted along it
Experimental: as §1, §2

Mean % WT Binding [% WT binding]	Binder
110	B3
99.6	B4
96.6	B5
95.7	B6

biological target: human CD33 P132S (human, UniProt P20138 18-364); assay: flow cytometry, HEK293-T, IgG
Sequence (P20138 18-364 P132S limits assumed): as the sequence (P20138 18-364 limits assumed) above, with P115S counted along it
Experimental: as §1, §2

Mean % WT Binding [% WT binding]	Binder
110	B3
102	B4
92.9	B5
95.8	B6

biological target: human CD33 S131M (human, UniProt P20138 18-364); assay: flow cytometry, HEK293-T, IgG
Sequence (P20138 18-364 S131M limits assumed): as the sequence (P20138 18-364 limits assumed) above, with S114M counted along it
Experimental: as §1, §2

Mean % WT Binding [% WT binding]	Binder
108	B3
97.6	B4
105	B5
91.9	B6

biological target: human CD33 L134R (human, UniProt P20138 18-364); assay: flow cytometry, HEK293-T, IgG
Sequence (P20138 18-364 L134R limits assumed): as the sequence (P20138 18-364 limits assumed) above, with L117R counted along it
Experimental: as §1, §2

Mean % WT Binding [% WT binding]	Binder
2.5	B3
2.4	B4
3.1	B5
1	B6

biological target: human CD33 P132D (human, UniProt P20138 18-364); assay: flow cytometry, HEK293-T, IgG
Sequence (P20138 18-364 P132D limits assumed): as the sequence (P20138 18-364 limits assumed) above, with P115D counted along it
Experimental: as §1, §2

Mean % WT Binding [% WT binding]	Binder
73.6	B3
99.6	B4
89.9	B5
92.7	B6

biological target: human CD33 P132K (human, UniProt P20138 18-364); assay: flow cytometry, HEK293-T, IgG
Sequence (P20138 18-364 P132K limits assumed): as the sequence (P20138 18-364 limits assumed) above, with P115K counted along it
Experimental: as §1, §2

Mean % WT Binding [% WT binding]	Binder
119	B3
102	B4
99.6	B5
65	B6

biological target: human CD33 S131T (human, UniProt P20138 18-364); assay: flow cytometry, HEK293-T, IgG
Sequence (P20138 18-364 S131T limits assumed): as the sequence (P20138 18-364 limits assumed) above, with S114T counted along it
Experimental: as §1, §2

Mean % WT Binding [% WT binding]	Binder
111	B3
102	B4
97.2	B5
116	B6

biological target: human CD33 P132Y (human, UniProt P20138 18-364); assay: flow cytometry, HEK293-T, IgG
Sequence (P20138 18-364 P132Y limits assumed): as the sequence (P20138 18-364 limits assumed) above, with P115Y counted along it
Experimental: as §1, §2

Mean % WT Binding [% WT binding]	Binder
65	B3
78.6	B4
93.5	B5
85.2	B6

biological target: human CD33 P132N (human, UniProt P20138 18-364); assay: flow cytometry, HEK293-T, IgG
Sequence (P20138 18-364 P132N limits assumed): as the sequence (P20138 18-364 limits assumed) above, with P115N counted along it
Experimental: as §1, §2

Mean % WT Binding [% WT binding]	Binder
100	B3
100	B4
91.4	B5
94.5	B6

biological target: human CD33 P132T (human, UniProt P20138 18-364); assay: flow cytometry, HEK293-T, IgG
Sequence (P20138 18-364 P132T limits assumed): as the sequence (P20138 18-364 limits assumed) above, with P115T counted along it
Experimental: as §1, §2

Mean % WT Binding [% WT binding]	Binder
103	B3
99.8	B4
98.9	B5
106	B6

biological target: human CD33 S131W (human, UniProt P20138 18-364); assay: flow cytometry, HEK293-T, IgG
Sequence (P20138 18-364 S131W limits assumed): as the sequence (P20138 18-364 limits assumed) above, with S114W counted along it
Experimental: as §1, §2

Mean % WT Binding [% WT binding]	Binder
92.4	B3
87.5	B4
97.6	B5
91.9	B6

biological target: human CD33 P132V (human, UniProt P20138 18-364); assay: flow cytometry, HEK293-T, IgG
Sequence (P20138 18-364 P132V limits assumed): as the sequence (P20138 18-364 limits assumed) above, with P115V counted along it
Experimental: as §1, §2

Mean % WT Binding [% WT binding]	Binder
102	B3
94.7	B4
105	B5
86.6	B6

biological target: human CD33 S131D (human, UniProt P20138 18-364); assay: flow cytometry, HEK293-T, IgG
Sequence (P20138 18-364 S131D limits assumed): as the sequence (P20138 18-364 limits assumed) above, with S114D counted along it
Experimental: as §1, §2

Mean % WT Binding [% WT binding]	Binder
101	B3
97.5	B4
91.9	B5
93.9	B6

biological target: human CD33 S131N (human, UniProt P20138 18-364); assay: flow cytometry, HEK293-T, IgG
Sequence (P20138 18-364 S131N limits assumed): as the sequence (P20138 18-364 limits assumed) above, with S114N counted along it
Experimental: as §1, §2

Mean % WT Binding [% WT binding]	Binder
126	B3
105	B4
94.6	B5
118	B6

biological target: human CD33 L134Q (human, UniProt P20138 18-364); assay: flow cytometry, HEK293-T, IgG
Sequence (P20138 18-364 L134Q limits assumed): as the sequence (P20138 18-364 limits assumed) above, with L117Q counted along it
Experimental: as §1, §2

Mean % WT Binding [% WT binding]	Binder
77.4	B3
86.8	B4
83	B5
87.7	B6

biological target: human CD33 S131H (human, UniProt P20138 18-364); assay: flow cytometry, HEK293-T, IgG
Sequence (P20138 18-364 S131H limits assumed): as the sequence (P20138 18-364 limits assumed) above, with S114H counted along it
Experimental: as §1, §2

Mean % WT Binding [% WT binding]	Binder
112	B3
103	B4
96.4	B5
100	B6

biological target: human CD33 L134F (human, UniProt P20138 18-364); assay: flow cytometry, HEK293-T, IgG
Sequence (P20138 18-364 L134F limits assumed): as the sequence (P20138 18-364 limits assumed) above, with L117F counted along it
Experimental: as §1, §2

Mean % WT Binding [% WT binding]	Binder
106	B3
90.6	B4
92.5	B5
104	B6

biological target: human CD33 S131K (human, UniProt P20138 18-364); assay: flow cytometry, HEK293-T, IgG
Sequence (P20138 18-364 S131K limits assumed): as the sequence (P20138 18-364 limits assumed) above, with S114K counted along it
Experimental: as §1, §2

Mean % WT Binding [% WT binding]	Binder
91.2	B3
100	B4
102	B5
87.7	B6

biological target: human CD33 L134M (human, UniProt P20138 18-364); assay: flow cytometry, HEK293-T, IgG
Sequence (P20138 18-364 L134M limits assumed): as the sequence (P20138 18-364 limits assumed) above, with L117M counted along it
Experimental: as §1, §2

Mean % WT Binding [% WT binding]	Binder
105	B3
99	B4
81.2	B5
106	B6

biological target: human CD33 L134T (human, UniProt P20138 18-364); assay: flow cytometry, HEK293-T, IgG
Sequence (P20138 18-364 L134T limits assumed): as the sequence (P20138 18-364 limits assumed) above, with L117T counted along it
Experimental: as §1, §2

Mean % WT Binding [% WT binding]	Binder
99.2	B3
90.3	B4
91.6	B5
101	B6

biological target: human CD33 P132L (human, UniProt P20138 18-364); assay: flow cytometry, HEK293-T, IgG
Sequence (P20138 18-364 P132L limits assumed): as the sequence (P20138 18-364 limits assumed) above, with P115L counted along it
Experimental: as §1, §2

Mean % WT Binding [% WT binding]	Binder
116	B3
96.7	B4
94.6	B5
94.4	B6

biological target: human CD33 S131Q (human, UniProt P20138 18-364); assay: flow cytometry, HEK293-T, IgG
Sequence (P20138 18-364 S131Q limits assumed): as the sequence (P20138 18-364 limits assumed) above, with S114Q counted along it
Experimental: as §1, §2

Mean % WT Binding [% WT binding]	Binder
110	B3
97.3	B4
101	B5
93.9	B6

biological target: human CD33 S131Y (human, UniProt P20138 18-364); assay: flow cytometry, HEK293-T, IgG
Sequence (P20138 18-364 S131Y limits assumed): as the sequence (P20138 18-364 limits assumed) above, with S114Y counted along it
Experimental: as §1, §2

Mean % WT Binding [% WT binding]	Binder
98.5	B3
85.7	B4
97.7	B5
97.4	B6

biological target: human CD33 P132Q (human, UniProt P20138 18-364); assay: flow cytometry, HEK293-T, IgG
Sequence (P20138 18-364 P132Q limits assumed): as the sequence (P20138 18-364 limits assumed) above, with P115Q counted along it
Experimental: as §1, §2

Mean % WT Binding [% WT binding]	Binder
83.4	B3
86.9	B4
91.7	B5
80.1	B6

biological target: human CD33 P132F (human, UniProt P20138 18-364); assay: flow cytometry, HEK293-T, IgG
Sequence (P20138 18-364 P132F limits assumed): as the sequence (P20138 18-364 limits assumed) above, with P115F counted along it
Experimental: as §1, §2

Mean % WT Binding [% WT binding]	Binder
65.1	B3
71.3	B4
91.3	B5
79.4	B6
